Reference: doi:10.1101/2023.10.27.564484, “Insights into Molecular Diversity within the FET Family: Unraveling Phase Separation of the N-Terminal Low Complexity Domain from RNA-Binding Protein EWS” (bioRxiv, 2023)

Key:
EWS^LCD,7YS = EWS^LCD,7YS (UniProt Q01844); assay: pelleting assay (phase separation); conditions: 50 µM protein, 150 mM NaCl, 20 mM Tris pH 7.4; parent: est. 0.36; read off a plot
EWS^LCD,13YS = EWS^LCD,13YS (UniProt Q01844); assay: pelleting assay (phase separation); conditions: 50 µM protein, 150 mM NaCl, 20 mM Tris pH 7.4; parent: est. 0.36; read off a plot
[1] = target: the molecule itself; assay: turbidity (phase separation) with brightfield imaging; stock diluted into 20 mM Tris buffer with varied protein, NaCl, pH or temperature in microwell plates; absorbance and brightfield images of droplets
[2] = target: the molecule itself; assay: co-sedimentation; pelleting of condensates: stock in CAPS pH 11 diluted into 20 mM Tris pH 7.4-7.5, 150 mM NaCl, 18,000 g for 15 min at room temperature, A280 of the supernatant; protein 25-400 µM, mutants at 50 µM

EWS low-complexity domain (N-terminal 264 residues of RNA-binding protein EWS) (from UniProt Q01844) 7YS
other: fraction soluble (EWS^LCD,7YS): 0.92

EWS low-complexity domain (N-terminal 264 residues of RNA-binding protein EWS) (from UniProt Q01844) 13YS
other: fraction soluble (EWS^LCD,13YS): 1

B1: EWS low-complexity domain (N-terminal 264 residues of RNA-binding protein EWS) (domain or fragment)
chain: GAMASTDYSTYSQAAAQQGYSAYTAQPTQGYAQTTQAYGQQSYGTYGQPTDVSYTQAQTTATYGQTAYATSYGQPPTGYTTPTAPQAYSQPVQGYGTGAYDTTTATVTTTQASYAAQSAYGTQPAYPAYGQQPAATAPTRPQDGNKPTETSQPQSSTGGYNQPSLGYGQSNYSYPQVPGSYPMQPVTAPPSYPPTSYSSTQPTSYDQSSYSQQNTYGQPSSYGQQSSYGQQSSYGQQPPTSYPPQTGSYSQAPSQYSQQSSSYGQQ
notes: two residue (Gly, Ala) cloning scar left after TEV cleavage; not included in the numbering; 15N-enriched in the intermolecular PRE experiment; unlabelled in turbidity and pelleting assays; also called EWS^LCD; EWS LCD; source: E. coli BL21 DE3 Star, purified (IMAC in urea, TEV cleavage, second IMAC, SEC); not shown: His8, N-terminal, cleaved
binding result [1]: binds

B2: EWS^LCD Y172S (domain or fragment)
chain: GAMASTDYSTYSQAAAQQGYSAYTAQPTQGYAQTTQAYGQQSYGTYGQPTDVSYTQAQTTATYGQTAYATSYGQPPTGYTTPTAPQAYSQPVQGYGTGAYDTTTATVTTTQASYAAQSAYGTQPAYPAYGQQPAATAPTRPQDGNKPTETSQPQSSTGGYNQPSLGYGQSNYSSPQVPGSYPMQPVTAPPSYPPTSYSSTQPTSYDQSSYSQQNTYGQPSSYGQQSSYGQQSSYGQQPPTSYPPQTGSYSQAPSQYSQQSSSYGQQ
notes: two residue (Gly, Ala) cloning scar left after TEV cleavage; not included in the numbering; source: E. coli BL21 DE3 Star, purified (IMAC, TEV cleavage, SEC); not shown: His8, N-terminal, cleaved
binding result [2]: binds

B3: EWS^LCD Y44S (domain or fragment)
chain: GAMASTDYSTYSQAAAQQGYSAYTAQPTQGYAQTTQAYGQQSYGTSGQPTDVSYTQAQTTATYGQTAYATSYGQPPTGYTTPTAPQAYSQPVQGYGTGAYDTTTATVTTTQASYAAQSAYGTQPAYPAYGQQPAATAPTRPQDGNKPTETSQPQSSTGGYNQPSLGYGQSNYSYPQVPGSYPMQPVTAPPSYPPTSYSSTQPTSYDQSSYSQQNTYGQPSSYGQQSSYGQQSSYGQQPPTSYPPQTGSYSQAPSQYSQQSSSYGQQ
notes: as for B2
binding result [2]: binds

B4: EWS^LCD,Y170S/Y172S (domain or fragment)
chain: GAMASTDYSTYSQAAAQQGYSAYTAQPTQGYAQTTQAYGQQSYGTYGQPTDVSYTQAQTTATYGQTAYATSYGQPPTGYTTPTAPQAYSQPVQGYGTGAYDTTTATVTTTQASYAAQSAYGTQPAYPAYGQQPAATAPTRPQDGNKPTETSQPQSSTGGYNQPSLGYGQSNSSSPQVPGSYPMQPVTAPPSYPPTSYSSTQPTSYDQSSYSQQNTYGQPSSYGQQSSYGQQSSYGQQPPTSYPPQTGSYSQAPSQYSQQSSSYGQQ
notes: two residue (Gly, Ala) cloning scar left after TEV cleavage; not included in the numbering; also called Y170/Y172S; source: E. coli BL21 DE3 Star, purified (IMAC, TEV cleavage, SEC); not shown: His8, N-terminal, cleaved
binding result [1]: binds

B5: EWS^LCD Y208S (domain or fragment)
chain: GAMASTDYSTYSQAAAQQGYSAYTAQPTQGYAQTTQAYGQQSYGTYGQPTDVSYTQAQTTATYGQTAYATSYGQPPTGYTTPTAPQAYSQPVQGYGTGAYDTTTATVTTTQASYAAQSAYGTQPAYPAYGQQPAATAPTRPQDGNKPTETSQPQSSTGGYNQPSLGYGQSNYSYPQVPGSYPMQPVTAPPSYPPTSYSSTQPTSYDQSSSSQQNTYGQPSSYGQQSSYGQQSSYGQQPPTSYPPQTGSYSQAPSQYSQQSSSYGQQ
notes: as for B2
binding result [2]: binds
